The results in this text go back to the supplement of paper PMC12338614.

To fix the notation:
B1: library; numbered along this chain (parent)
chain: MEVVDPQQLGMFTEGELMSVGMDTFIHRIDSTEVIYQPRRKRAKLIGKYLMGDLLGEGSYGKVKEVLDSETLCRRAVKILKKKKLRRIPNGEANVKKEIQLLRRLRHKNVIQLVDVLYNEEKQKMYMVMEYCVCGMQEMLDSVPEKRFPVCQAHGYFCQLIDGLEYLHSQGIVHKDIKPGNLLLTTGGTLKISDLGVAEALHPFAADDTCRTSQGSPAFQPPEIANGLDTFSGFKVDIWSAGVTLYNITTGLYPFEGDNIYKLFENIGKGSYAIPGDCGPPLSDLLKGMLEYEPAKRFSIRQIRQHSWFRKKHPPAEAPVPIPPSPDTKDRWRSMTVVPYLEDLHGADEDEDLFDIEDDIIYTQDFTVPGQVPEEEASHNGQRRGLPKAVCMNGTEAAQLSTKSRAEGRAPNPARKACSASSKIRRLSACKQQ

± gives the uncertainty stated by the source.

This data set covers variants of B1. Kind of data set: STK11 functional score (HeLa growth suppression), rescaled enrichment; synonymous median = 1, nonsense median = 0 (normalised score). As to conditions: with HeLa; variant type: missense. The method, boiled down:
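HeLa cells carrying an AAVS1 landing pad received codon-optimised STK11 libraries made by codon randomisation (POPCode), integrated by Bxb1, with three regions each transfected three times. Integrants that were BFP-negative and mCherry-positive were sorted by FACS 4–5 days after electroporation and then grown for about two weeks. Tiled amplicons from gDNA were sequenced on NextSeq at ~2 million reads per tile. The functional score is a wild-type-corrected log ratio of post- to pre-selection counts, rescaled to the synonymous and nonsense medians, merged across codons and replicate transfections, and given a bootstrapped error.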
For MEVVDPQQLGMFTEGELMSVGMDTFIHRIDSTEVIYQPRRKRAKLIGKYLMGDLLGEGSYGKVKEVLDSETLCRRAVKILKKKKLRRIPNGEANVKKEIQLLRRLRHKNVIQLVDVLYNEEKQKMYMVMEYCVCGMQEMLDSVPEKRFPVCQAHGYFCQLIDGLEYLHSQGIVHKDIKPGNLLLTTGGTLKISDLGVAEALHPFAADDTCRTSQGSPAFQPPEIANGLDTFSGFKVDIWSAGVTLYNITTGLYPFEGDNIYKLFENIGKGSYAIPGDCGPPLSDLLKGMLEYEPAKRFSIRQIRQHSWFRKKHPPAEAPVPIPPSPDTKDRWRSMTVVPYLEDLHGADEDEDLFDIEDDIIYTQDFTVPGQVPEEEASHNGQRRGLPKAVWMNGTEAAQLSTKSRAEGRAPNPARKACSASSKIRRLSACKQQ [C391W], the STK11 functional score was determined as 0.764 ± 0.48.

In the case of MEVVDPQQLGMFTEGELMSVGMDTFIHRIDSTEVIYQPRRKRAKLIGKYLMGDLLGEGSYGKVKEVLDSETLCRRAVKILKKKKLRRIPNGEANVKKEIQLLRRLRHKNVIQLVDVLYNEEKQKMYMVMEYCVCGMQEMLDSVPEKRFPVCQAHGYFCQLIDGLEYLHSQGIVHKDIKPGNLLLTTGGTLKISDLGVAEALHPFAADDTCRTSQGSPAFQPPEIANGLDTFSGFKVDIWSAGVTLYNITTGLYPFEGDNIYKLFENIGKGSYAIPGDCGPPLSDLLKGMLEYEPAKRFSIRQIRQHSWFRKKHPPAEAPVPIPPSPDTKDRWRSMTVVPYLEDLHGADEDEDLFDIEDDIIYTQDFTVPGQVPEEEASHNGQRRGLPKAVCRNGTEAAQLSTKSRAEGRAPNPARKACSASSKIRRLSACKQQ [M392R], the STK11 functional score amounted to 0.973 ± 0.31.

On to MEVVDPQQLGMFTEGELMSVGMDTFIHRIDSTEVIYQPRRKRAKLIGKYLMGDLLGEGSYGKVKEVLDSETLCRRAVKILKKKKLRRIPNGEANVKKEIQLLRRLRHKNVIQLVDVLYNEEKQKMYMVMEYCVCGMQEMLDSVPEKRFPVCQAHGYFCQLIDGLEYLHSQGIVHKDIKPGNLLLTTGGTLKISDLGVAEALHPFAADDTCRTSQGSPAFQPPEIANGLDTFSGFKVDIWSAGVTLYNITTGLYPFEGDNIYKLFENIGKGSYAIPGDCGPPLSDLLKGMLEYEPAKRFSIRQIRQHSWFRKKHPPAEAPVPIPPSPDTKDRWRSMTVVPYLEDLHGADEDEDLFDIEDDIIYTQDFTVPGQVPEEEASHNGQRRGLPKAVCCNGTEAAQLSTKSRAEGRAPNPARKACSASSKIRRLSACKQQ [M392C], for which the STK11 functional score is 1.34 ± 0.31.

Regarding MEVVDPQQLGMFTEGELMSVGMDTFIHRIDSTEVIYQPRRKRAKLIGKYLMGDLLGEGSYGKVKEVLDSETLCRRAVKILKKKKLRRIPNGEANVKKEIQLLRRLRHKNVIQLVDVLYNEEKQKMYMVMEYCVCGMQEMLDSVPEKRFPVCQAHGYFCQLIDGLEYLHSQGIVHKDIKPGNLLLTTGGTLKISDLGVAEALHPFAADDTCRTSQGSPAFQPPEIANGLDTFSGFKVDIWSAGVTLYNITTGLYPFEGDNIYKLFENIGKGSYAIPGDCGPPLSDLLKGMLEYEPAKRFSIRQIRQHSWFRKKHPPAEAPVPIPPSPDTKDRWRSMTVVPYLEDLHGADEDEDLFDIEDDIIYTQDFTVPGQVPEEEASHNGQRRGLPKAVCDNGTEAAQLSTKSRAEGRAPNPARKACSASSKIRRLSACKQQ [M392D], the STK11 functional score came to 1.19 ± 0.45.

With MEVVDPQQLGMFTEGELMSVGMDTFIHRIDSTEVIYQPRRKRAKLIGKYLMGDLLGEGSYGKVKEVLDSETLCRRAVKILKKKKLRRIPNGEANVKKEIQLLRRLRHKNVIQLVDVLYNEEKQKMYMVMEYCVCGMQEMLDSVPEKRFPVCQAHGYFCQLIDGLEYLHSQGIVHKDIKPGNLLLTTGGTLKISDLGVAEALHPFAADDTCRTSQGSPAFQPPEIANGLDTFSGFKVDIWSAGVTLYNITTGLYPFEGDNIYKLFENIGKGSYAIPGDCGPPLSDLLKGMLEYEPAKRFSIRQIRQHSWFRKKHPPAEAPVPIPPSPDTKDRWRSMTVVPYLEDLHGADEDEDLFDIEDDIIYTQDFTVPGQVPEEEASHNGQRRGLPKAVCWNGTEAAQLSTKSRAEGRAPNPARKACSASSKIRRLSACKQQ [M392W], the STK11 functional score was determined as 0.68 ± 0.21.

On to MEVVDPQQLGMFTEGELMSVGMDTFIHRIDSTEVIYQPRRKRAKLIGKYLMGDLLGEGSYGKVKEVLDSETLCRRAVKILKKKKLRRIPNGEANVKKEIQLLRRLRHKNVIQLVDVLYNEEKQKMYMVMEYCVCGMQEMLDSVPEKRFPVCQAHGYFCQLIDGLEYLHSQGIVHKDIKPGNLLLTTGGTLKISDLGVAEALHPFAADDTCRTSQGSPAFQPPEIANGLDTFSGFKVDIWSAGVTLYNITTGLYPFEGDNIYKLFENIGKGSYAIPGDCGPPLSDLLKGMLEYEPAKRFSIRQIRQHSWFRKKHPPAEAPVPIPPSPDTKDRWRSMTVVPYLEDLHGADEDEDLFDIEDDIIYTQDFTVPGQVPEEEASHNGQRRGLPKAVCVNGTEAAQLSTKSRAEGRAPNPARKACSASSKIRRLSACKQQ [M392V], for which the STK11 functional score worked out at 1.51 ± 0.23.

For the variant MEVVDPQQLGMFTEGELMSVGMDTFIHRIDSTEVIYQPRRKRAKLIGKYLMGDLLGEGSYGKVKEVLDSETLCRRAVKILKKKKLRRIPNGEANVKKEIQLLRRLRHKNVIQLVDVLYNEEKQKMYMVMEYCVCGMQEMLDSVPEKRFPVCQAHGYFCQLIDGLEYLHSQGIVHKDIKPGNLLLTTGGTLKISDLGVAEALHPFAADDTCRTSQGSPAFQPPEIANGLDTFSGFKVDIWSAGVTLYNITTGLYPFEGDNIYKLFENIGKGSYAIPGDCGPPLSDLLKGMLEYEPAKRFSIRQIRQHSWFRKKHPPAEAPVPIPPSPDTKDRWRSMTVVPYLEDLHGADEDEDLFDIEDDIIYTQDFTVPGQVPEEEASHNGQRRGLPKAVCLNGTEAAQLSTKSRAEGRAPNPARKACSASSKIRRLSACKQQ [M392L], the STK11 functional score worked out at 1.57 ± 0.29.

Take MEVVDPQQLGMFTEGELMSVGMDTFIHRIDSTEVIYQPRRKRAKLIGKYLMGDLLGEGSYGKVKEVLDSETLCRRAVKILKKKKLRRIPNGEANVKKEIQLLRRLRHKNVIQLVDVLYNEEKQKMYMVMEYCVCGMQEMLDSVPEKRFPVCQAHGYFCQLIDGLEYLHSQGIVHKDIKPGNLLLTTGGTLKISDLGVAEALHPFAADDTCRTSQGSPAFQPPEIANGLDTFSGFKVDIWSAGVTLYNITTGLYPFEGDNIYKLFENIGKGSYAIPGDCGPPLSDLLKGMLEYEPAKRFSIRQIRQHSWFRKKHPPAEAPVPIPPSPDTKDRWRSMTVVPYLEDLHGADEDEDLFDIEDDIIYTQDFTVPGQVPEEEASHNGQRRGLPKAVCFNGTEAAQLSTKSRAEGRAPNPARKACSASSKIRRLSACKQQ [M392F]: the STK11 functional score was determined as 1.17 ± 0.41.

As for MEVVDPQQLGMFTEGELMSVGMDTFIHRIDSTEVIYQPRRKRAKLIGKYLMGDLLGEGSYGKVKEVLDSETLCRRAVKILKKKKLRRIPNGEANVKKEIQLLRRLRHKNVIQLVDVLYNEEKQKMYMVMEYCVCGMQEMLDSVPEKRFPVCQAHGYFCQLIDGLEYLHSQGIVHKDIKPGNLLLTTGGTLKISDLGVAEALHPFAADDTCRTSQGSPAFQPPEIANGLDTFSGFKVDIWSAGVTLYNITTGLYPFEGDNIYKLFENIGKGSYAIPGDCGPPLSDLLKGMLEYEPAKRFSIRQIRQHSWFRKKHPPAEAPVPIPPSPDTKDRWRSMTVVPYLEDLHGADEDEDLFDIEDDIIYTQDFTVPGQVPEEEASHNGQRRGLPKAVCGNGTEAAQLSTKSRAEGRAPNPARKACSASSKIRRLSACKQQ [M392G], the STK11 functional score turned out to be 1.43 ± 0.22.

On to MEVVDPQQLGMFTEGELMSVGMDTFIHRIDSTEVIYQPRRKRAKLIGKYLMGDLLGEGSYGKVKEVLDSETLCRRAVKILKKKKLRRIPNGEANVKKEIQLLRRLRHKNVIQLVDVLYNEEKQKMYMVMEYCVCGMQEMLDSVPEKRFPVCQAHGYFCQLIDGLEYLHSQGIVHKDIKPGNLLLTTGGTLKISDLGVAEALHPFAADDTCRTSQGSPAFQPPEIANGLDTFSGFKVDIWSAGVTLYNITTGLYPFEGDNIYKLFENIGKGSYAIPGDCGPPLSDLLKGMLEYEPAKRFSIRQIRQHSWFRKKHPPAEAPVPIPPSPDTKDRWRSMTVVPYLEDLHGADEDEDLFDIEDDIIYTQDFTVPGQVPEEEASHNGQRRGLPKAVCNNGTEAAQLSTKSRAEGRAPNPARKACSASSKIRRLSACKQQ [M392N], for which the STK11 functional score was determined as 0.559 ± 0.12.

As to MEVVDPQQLGMFTEGELMSVGMDTFIHRIDSTEVIYQPRRKRAKLIGKYLMGDLLGEGSYGKVKEVLDSETLCRRAVKILKKKKLRRIPNGEANVKKEIQLLRRLRHKNVIQLVDVLYNEEKQKMYMVMEYCVCGMQEMLDSVPEKRFPVCQAHGYFCQLIDGLEYLHSQGIVHKDIKPGNLLLTTGGTLKISDLGVAEALHPFAADDTCRTSQGSPAFQPPEIANGLDTFSGFKVDIWSAGVTLYNITTGLYPFEGDNIYKLFENIGKGSYAIPGDCGPPLSDLLKGMLEYEPAKRFSIRQIRQHSWFRKKHPPAEAPVPIPPSPDTKDRWRSMTVVPYLEDLHGADEDEDLFDIEDDIIYTQDFTVPGQVPEEEASHNGQRRGLPKAVCSNGTEAAQLSTKSRAEGRAPNPARKACSASSKIRRLSACKQQ [M392S], the STK11 functional score was 1.52 ± 0.26.

With MEVVDPQQLGMFTEGELMSVGMDTFIHRIDSTEVIYQPRRKRAKLIGKYLMGDLLGEGSYGKVKEVLDSETLCRRAVKILKKKKLRRIPNGEANVKKEIQLLRRLRHKNVIQLVDVLYNEEKQKMYMVMEYCVCGMQEMLDSVPEKRFPVCQAHGYFCQLIDGLEYLHSQGIVHKDIKPGNLLLTTGGTLKISDLGVAEALHPFAADDTCRTSQGSPAFQPPEIANGLDTFSGFKVDIWSAGVTLYNITTGLYPFEGDNIYKLFENIGKGSYAIPGDCGPPLSDLLKGMLEYEPAKRFSIRQIRQHSWFRKKHPPAEAPVPIPPSPDTKDRWRSMTVVPYLEDLHGADEDEDLFDIEDDIIYTQDFTVPGQVPEEEASHNGQRRGLPKAVCPNGTEAAQLSTKSRAEGRAPNPARKACSASSKIRRLSACKQQ [M392P], the STK11 functional score was 1.63 ± 0.27.

In the case of MEVVDPQQLGMFTEGELMSVGMDTFIHRIDSTEVIYQPRRKRAKLIGKYLMGDLLGEGSYGKVKEVLDSETLCRRAVKILKKKKLRRIPNGEANVKKEIQLLRRLRHKNVIQLVDVLYNEEKQKMYMVMEYCVCGMQEMLDSVPEKRFPVCQAHGYFCQLIDGLEYLHSQGIVHKDIKPGNLLLTTGGTLKISDLGVAEALHPFAADDTCRTSQGSPAFQPPEIANGLDTFSGFKVDIWSAGVTLYNITTGLYPFEGDNIYKLFENIGKGSYAIPGDCGPPLSDLLKGMLEYEPAKRFSIRQIRQHSWFRKKHPPAEAPVPIPPSPDTKDRWRSMTVVPYLEDLHGADEDEDLFDIEDDIIYTQDFTVPGQVPEEEASHNGQRRGLPKAVCANGTEAAQLSTKSRAEGRAPNPARKACSASSKIRRLSACKQQ [M392A], the STK11 functional score was determined as 1.56 ± 0.25.

In the case of MEVVDPQQLGMFTEGELMSVGMDTFIHRIDSTEVIYQPRRKRAKLIGKYLMGDLLGEGSYGKVKEVLDSETLCRRAVKILKKKKLRRIPNGEANVKKEIQLLRRLRHKNVIQLVDVLYNEEKQKMYMVMEYCVCGMQEMLDSVPEKRFPVCQAHGYFCQLIDGLEYLHSQGIVHKDIKPGNLLLTTGGTLKISDLGVAEALHPFAADDTCRTSQGSPAFQPPEIANGLDTFSGFKVDIWSAGVTLYNITTGLYPFEGDNIYKLFENIGKGSYAIPGDCGPPLSDLLKGMLEYEPAKRFSIRQIRQHSWFRKKHPPAEAPVPIPPSPDTKDRWRSMTVVPYLEDLHGADEDEDLFDIEDDIIYTQDFTVPGQVPEEEASHNGQRRGLPKAVCINGTEAAQLSTKSRAEGRAPNPARKACSASSKIRRLSACKQQ [M392I], the STK11 functional score is 1.42 ± 0.52.
